One block for each substance: values may come before it.
Target: recombinant human GST–PBD (UniProt P53350)
Test: in vitro binding assay, western blot quantification
Conditions: read off a plot

Sequence of UniProt P53350 (P53350 whole entry, looked up): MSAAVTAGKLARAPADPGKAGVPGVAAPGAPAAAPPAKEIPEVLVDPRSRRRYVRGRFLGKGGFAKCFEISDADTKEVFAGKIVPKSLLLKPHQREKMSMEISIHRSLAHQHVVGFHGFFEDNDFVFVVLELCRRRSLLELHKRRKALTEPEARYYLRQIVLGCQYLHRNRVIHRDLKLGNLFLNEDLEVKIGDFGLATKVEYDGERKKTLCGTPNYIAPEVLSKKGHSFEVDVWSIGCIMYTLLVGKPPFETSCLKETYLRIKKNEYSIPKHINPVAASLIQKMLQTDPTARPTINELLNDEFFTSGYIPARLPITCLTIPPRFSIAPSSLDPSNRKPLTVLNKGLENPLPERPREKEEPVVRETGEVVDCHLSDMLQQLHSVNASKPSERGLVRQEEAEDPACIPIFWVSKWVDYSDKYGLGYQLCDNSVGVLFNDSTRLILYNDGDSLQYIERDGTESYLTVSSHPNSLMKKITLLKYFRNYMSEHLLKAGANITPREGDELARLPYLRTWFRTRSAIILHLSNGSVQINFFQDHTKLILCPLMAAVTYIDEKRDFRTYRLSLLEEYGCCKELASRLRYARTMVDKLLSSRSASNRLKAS

- response (repeat Aurora #1, MBP–CTb pre-treated with Aurora A (+), parent: est. 1.4): 1.2 a.u.
- response (repeat Aurora #2, MBP–CTb pre-treated with Aurora A (+), parent: est. 1.5): 1.2 a.u.
Substance: MBP–CTb (WT Ana1 CTb fragment), phosphorylated by Aurora A in vitro S10T

- response (repeat PLK1 #1, MBP–CTb pre-treated with PLK1 (+), parent: est. 1.7): 1.1 a.u.
- response (repeat PLK1 #2, MBP–CTb pre-treated with PLK1 (+), parent: est. 1.9): 1.5 a.u.
- response (repeat PLK1 #3, MBP–CTb pre-treated with PLK1 (+), parent: est. 1.8): 1.4 a.u.
- response (repeat PLK1 #4, MBP–CTb pre-treated with PLK1 (+), parent: est. 2.2): 1.3 a.u.
Substance: MBP–CTb (WT Ana1 CTb fragment), phosphorylated by PLK1 in vitro (from UniProt Q9VC64) S10T

- response (repeat Aurora #1, no kinase (-), parent: est. 1.4): 1 a.u.
- response (repeat Aurora #2, no kinase (-), parent: est. 1.3): 1 a.u.
- response (repeat PLK1 #1, no kinase (-), parent: est. 1.1): 1 a.u.
- response (repeat PLK1 #2, no kinase (-), parent: est. 1.2): 1 a.u.
- response (repeat PLK1 #3, no kinase (-), parent: est. 1.3): 1 a.u.
- response (repeat PLK1 #4, no kinase (-), parent: est. 1.3): 1 a.u.
Substance: MBP–CTb (WT Ana1 CTb fragment), pre-treated with buffer S10T

Substance: MBP–CTa (WT Ana1 CTa fragment), pre-treated with PLK1 S10T
- response (single repeat PLK1 + CTa, MBP–CTa pre-treated with PLK1 (+), parent: est. 1.0): 1.1 a.u.
